B1: MD707-1 (antibody, V domains shown)
VH: AVHLVESGGGLVQPKESLKISCAASGFTFSNAAMFWVRQAPGKGLEWVARIRTKANNYATYYADSVKGRFTISRDDSKSMVYLQMDNVKTDDTAMYYCIVVVLTTTRDYFDYWGQGVMVTVSS
VL: DIVLTQAPLSVSVTPGESASISCRSSQSLLTVKGITSLYWFLQKPGKSPQLLMYRMSNLASGVPDRFRGSGSETDFTLKISKVETEDVGVYYCAQFLEYPHTFGAGTKLELKR
notes: also called 7MD07-1; rat anti-human CD127 Mab MD707-1
B2: MD707-3 (antibody, V domains shown)
VH: B1 VH with F35Y, D64E
VL: B1 VL with M53I
notes: also called 7MD07-3; rat anti-human CD127 Mab MD707-3
B3: MD707-13 (antibody, V domains shown)
VH: QLKESGPGLVQPSQTLSLTCTVSGLSLPNNNIAWIRQSPGKGLEWMGVIWSNGDTDYNSAIRSRLSISRDSSKSQVFLRMNSLQSEDTAMYFCAREGMTTLDYWGQGVVVTVSS
VL: EIVLTQSPTTMAASPGEKVTITCRASSSVSYMHWFQQKSGSSPKPWIYDSSDLASGVPDRFSGSGSGTSYSLTISSMEAEDAATYYCLQRSSYPRTFGGGTKLELKR
notes: also called 7MD07-13; rat anti-human CD127 Mab MD707-13

Numbering of substitutions follows the chain as printed.

One may read the Kd as the constant that tells how readily two partners part at equilibrium. Read a low Kd as tighter binding.

The assay addresses T1, CD127 (as used in the BIAcore measurement of Table 1) (human, UniProt P16871 21-239, limits assumed).
T1 construct: the Mabs are called anti-human CD127; also called alpha chain of the IL-7 receptor; IL-7Ralpha
T1 sequence (looked up): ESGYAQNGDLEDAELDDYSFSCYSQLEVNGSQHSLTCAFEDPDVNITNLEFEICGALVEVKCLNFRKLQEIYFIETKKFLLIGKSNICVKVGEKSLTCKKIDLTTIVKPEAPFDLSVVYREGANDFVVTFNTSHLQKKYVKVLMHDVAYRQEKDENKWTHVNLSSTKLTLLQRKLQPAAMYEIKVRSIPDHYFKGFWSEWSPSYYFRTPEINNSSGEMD
The experiment in a line: SPR (BIAcore). A general note: Surface plasmon resonance follows binding to a sensor surface in real time, without labels.
For B1, the Kd is 15.9 nM.
The same measure for B2: 6.52 nM; for B3: 1.31 nM.

The values are drawn from patent US20140308281A1 (OSE IMMUNOTHERAPEUTICS, published 2014).
